“And” between values parts separate entries of the source, which are not always exact repeats. Equal entries are not always repeated.

The target in assay [1] is T1, recombinant soluble human TL1A (human, UniProt O95150 71-251).
T1 sequence: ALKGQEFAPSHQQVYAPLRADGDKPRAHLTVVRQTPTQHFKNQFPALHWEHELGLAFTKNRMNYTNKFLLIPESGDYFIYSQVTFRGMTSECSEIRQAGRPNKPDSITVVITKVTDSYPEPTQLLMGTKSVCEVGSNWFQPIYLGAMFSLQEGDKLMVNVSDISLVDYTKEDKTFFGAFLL
Nature of the assay: cell-based or functional assay.

The target of assay [2] is T2, endogenous TL1A of stimulated human peripheral blood (human, UniProt O95150 72-251, limits assumed).
T2 sequence (looked up): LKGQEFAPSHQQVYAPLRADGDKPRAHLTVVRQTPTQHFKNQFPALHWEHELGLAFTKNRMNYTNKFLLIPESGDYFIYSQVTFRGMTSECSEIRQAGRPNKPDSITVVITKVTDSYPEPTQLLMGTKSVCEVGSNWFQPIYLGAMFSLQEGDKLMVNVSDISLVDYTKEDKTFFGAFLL
Put plainly: cell-based or functional assay.

Assay [3] has as its target T3, endogenous TL1A of stimulated cynomolgus monkey peripheral blood (cynomolgus monkey, UniProt G7PRK8 72-251).
T3 sequence: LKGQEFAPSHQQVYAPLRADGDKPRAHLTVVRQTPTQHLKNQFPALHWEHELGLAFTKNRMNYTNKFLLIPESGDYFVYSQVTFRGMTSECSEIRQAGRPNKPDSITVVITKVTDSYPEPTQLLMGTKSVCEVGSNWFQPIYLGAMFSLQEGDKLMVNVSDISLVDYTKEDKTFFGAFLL
Nature of the assay: cell-based or functional assay.

Assay [4] concerns the target T1, recombinant soluble human TL1A. Put plainly: KinExA, equilibrium in solution.
Protocol: (§1) This assay involves pre-incubating antibody: antigen mixtures in solution long enough to reach equilibrium before measuring the level of unbound antibody using a solid phase component. […] Beads were blocked for 1 hour with PBS plus 10 mg/ml bovine serum albumin (bovine serum albumin, Sigma) at room temperature before being diluted up to a total of 27 ml in PBS. […] For each titration series, a buffer sample and a sample of antibody alone were included. Each antibody: TL1A mixture was tumbled at room temperature for at least six hours to reach equilibrium and then each mixture was injected over the solid phase of TL1A-coated beads in the instrument flow cell. […] Beads were replenished between each sample. Binding signals of detected free antibody were converted to percentage of free, unbound antibody as measured by the antibody only sample and plotted versus each concentration of TL1A. For each antibody, the KD and ABC controlled curves were fit simultaneously using n-Curve Analysis software v3.1.4 to fit the curves to the ‘affinity, unknown ligand’ model and measure an equilibrium KD.
(§2) Solution-based kinetic exclusion assays (KinExA) were carried out as an orthogonal technique to measure equilibrium KD values.
Assay [5] addresses T4, recombinant soluble cynomolgus monkey TL1A (cynomolgus monkey, UniProt O95150 72-251 (human entry)).
T4 construct: also called cyno rsTL1A; cyno TL1A
T4 chain: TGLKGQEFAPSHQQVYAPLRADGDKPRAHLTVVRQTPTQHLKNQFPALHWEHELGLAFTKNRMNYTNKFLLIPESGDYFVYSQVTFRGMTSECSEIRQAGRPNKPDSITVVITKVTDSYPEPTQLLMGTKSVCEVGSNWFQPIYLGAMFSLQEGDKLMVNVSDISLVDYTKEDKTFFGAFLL
Nature of the assay: KinExA, equilibrium in solution. In general terms: A kinetic exclusion assay measures how much of one partner remains free in solution.
Protocol: as §1, §2

The target of assay [6] is T5, recombinant soluble murine TL1A (mouse, UniProt Q5UBV8 75-252).
T5 construct: also called murine rsTL1A; mouse TL1A
T5 chain: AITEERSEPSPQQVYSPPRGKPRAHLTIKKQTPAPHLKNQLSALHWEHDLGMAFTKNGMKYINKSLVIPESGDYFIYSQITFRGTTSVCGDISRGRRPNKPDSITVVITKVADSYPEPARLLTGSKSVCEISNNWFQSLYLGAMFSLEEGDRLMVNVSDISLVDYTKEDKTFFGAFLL
Put plainly: KinExA, equilibrium in solution.
Protocol: as §1, §2

In assay [7] the target is T1, recombinant soluble human TL1A. Put plainly: plate ELISA, TL1A coated, antibody titrated. For orientation: In an ELISA, binding on a coated surface is turned into a signal by an enzyme label.
Assay [8] addresses T5, recombinant soluble murine TL1A. Put plainly: SPR, IgG captured on anti-hIgG, TL1A injected. (SPR reads the build-up and loss of mass on a sensor chip optically.)
Description: (§3) The antibodies were captured via directly immobilized anti-human IgG (GE Healthcare) onto a carboxymethylated dextran sensor chip surface (CM5) using a Biacore T100 or T200 instrument. Anti-human IgG was immobilized through amine coupling to densities of approximately 4,000-13,000 response units (RU). […] At the end of each cycle, the entire anti-hIgG surface was regenerated by a 30-second pulse of 3M MgCl₂ followed by two consecutive 15-second pulses of PBS-NET. […] All injections were performed at 25° C. at a collection rate of 10 Hz. All sensorgrams were double referenced by using both a control surface and buffer injections. Rate constants were determined by fitting the data to a 1:1 model in Biacore T100, T200 evaluation software v1.0, or BIAevaluation software v4.1.1 and the equation KD=Kd/kₐ.
(§4) At the highest cytokine concentrations, the dissociation phase was sometimes extended to 60 minutes to achieve at least a 5% decrease in binding signal.
Assay [9] deals with T6, recombinant soluble rabbit TL1A (rabbit).
T6 construct: also called rabbit rsTL1A
T6 chain: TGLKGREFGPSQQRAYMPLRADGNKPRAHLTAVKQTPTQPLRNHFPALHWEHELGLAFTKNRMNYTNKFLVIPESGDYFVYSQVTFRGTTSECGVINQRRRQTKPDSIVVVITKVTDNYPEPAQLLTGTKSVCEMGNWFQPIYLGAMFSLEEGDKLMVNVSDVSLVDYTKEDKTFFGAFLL
Nature of the assay: SPR, IgG captured on anti-hIgG, TL1A injected.
Description: as §3, §4

The target of assay [10] is T1, recombinant soluble human TL1A. Nature of the assay: plate ELISA, TL1A coated, antibody titrated; plate of TNF β.
Protocol: (§5) The first 6 rows of each plate were coated with the test article cytokine, and the last two rows were coated with TL1A as a positive control. Rows 1 and 2 were duplicate rows where the test article cytokine was tested for binding to increasing concentrations of its corresponding anti-cytokine positive control antibody. […] The experiment for each cytokine was repeated three times.
(§6) Plates were incubated overnight at 4° C. After washing the plates three times (3×) with 300 μL PBST using a plate washer (model ELx405; BioTek), plates were blocked by incubating for 1 hour at room temperature with 300 μL of blocking buffer (PBST+0.5% BSA) in each well. […] Plates were then washed 5 times with PBST using the plate washer.
Assay [11] has the same target. Put plainly: plate ELISA, TL1A coated, antibody titrated; plate of Lymβ 2.
Protocol: as §5, §6
For assay [12] the target is unchanged. Put plainly: plate ELISA, TL1A coated, antibody titrated; plate of TNFSF10.
Protocol: as §5, §6
Assay [13] concerns the target T2, endogenous TL1A of stimulated human …. Put plainly: MSD ligand-binding assay of 1D1 1.31-free sTL1A in plasma of stimulated human blood.
Protocol: After 24 hours of culture at 37° C., 100 μL of 5% bovine serum albumin in PBS were added and mixed well with the 200 μL of blood cultures to dilute plasma (dilution factor: 1.5). […] IFNγ was measured using the MSD human IFNγ kit (Catalog No. K151AEB-1) following the manufacturer's instructions. […] The following day, plates were washed three times with 150 μL per well of 0.1% Tween 20 in PBS, followed with 150 μL per well of blocking solution (5% bovine serum albumin in PBS), then the plates were incubated at room temperature for 1 hour with orbital shaking (1500 rpm). After the plates were washed as mentioned above, diluted plasma samples were added and incubated at 4° C. overnight. […] TL1A standard curves were generated using recombinant human soluble TL1A. Plates were read following the manufacturer's procedure, standard curve and plasma concentration of the cytokine were calculated with the MSD software.
Assay [14] deals with T7, human TNFSF6 (FAS Ligand) (human, UniProt P48023 134-281, limits assumed).
T7 sequence (looked up): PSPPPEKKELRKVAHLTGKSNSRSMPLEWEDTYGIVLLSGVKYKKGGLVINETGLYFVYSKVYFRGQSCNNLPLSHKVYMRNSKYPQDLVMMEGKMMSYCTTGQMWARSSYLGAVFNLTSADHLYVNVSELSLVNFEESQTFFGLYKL
Nature of the assay: plate ELISA, TNFSF6 coated at 1 µg/mL, detection with anti-human IgG HRP.
Protocol: as §5, §6

The target of assay [15] is T3, endogenous TL1A of stimulated …. Put plainly: MSD ligand-binding assay of 1D1 1.31-free sTL1A in plasma of stimulated cynomolgus blood; mean of n=6 monkeys.
Protocol: (§7) Cynomolgus monkey peripheral blood treated with 1 ng/ml recombinant human IL-12 and 10 ng/ml recombinant human IL-18 was stimulated by immune complex coated plates for 24 hours at 37° C. […] Plasma was prepared from these samples and IFNγ was measured in the plasma samples by a quantitative immune-ligand binding assay using a Mesoscale (MSD) kit. […] Cynomolgus monkey peripheral blood treated with 1 ng/ml recombinant human IL-12 and 10 ng/ml recombinant human IL-18 was stimulated by immune complex coated plates for 24 hours at 37° C.
(§8) For IC and IL-12 and IL-18 stimulation, cynomolgus monkey blood was collected in sodium heparin coated tubes and used within one hour after the blood draw. Human IL-12 (1 ng/mL final concentration) and human IL-18 (10 ng/ml final concentration) were mixed in with blood prior to addition of 95 μL of the blood/IL-12/IL-18 mixture to each well of the IC coated plates.
Assay [16] has the same target. Put plainly: MSD ligand-binding assay of 1D1 1.31-free sTL1A in plasma of stimulated cynomolgus blood; lower end over the monkeys; lower end of range over 6 monkeys.
Protocol: as §7, §8
The target is the same in assay [17]. Nature of the assay: MSD ligand-binding assay of 1D1 1.31-free soluble TL1A in plasma of cynomolgus whole blood stimulated 24 h with immune complex + IL-12/IL-18 (representative experiment).
Protocol: Controls included stimulation without antibody as well as no, or single stimulation controls (only IC or only IL-12/IL-18) in triplicate. After 24 hours of culture at 37° C., 200 μL of 5% bovine serum albumin in PBS were added and mixed well with the 100 μL of blood cultures to dilute plasma (dilution factor: 3). […] IFNγ was measured using the MSD human IFNγ kit (Catalog No. K151AEB-1) following the manufacturer's instructions. […] The following day, plates were washed three times with 150 μL per well of 0.1% Tween 20 in PBS, followed with 150 μL per well of blocking solution (5% bovine serum albumin in PBS), then the plates were incubated at room temperature for 1 hour with orbital shaking (1500 rpm). […] Plates were incubated at room temperature for 2 hours with orbital shaking (1500 rpm) followed by the same plate wash protocol mentioned above. TL1A standard curves were generated using recombinant cynomolgus monkey soluble TL1A. Plates were read following the manufacturer's procedure, standard curve and plasma concentration of the cytokine were calculated using the MSD software per manufacturer's instructions.

B1: 1D1 1.31 (antibody, human IgG1, kappa, V domains shown)
VH: QVQLVQSGAEVKKPGASVKVSCKASGYDFTYYGISWVRQAPGQGLEWMGWISTYNGNTHYARMLQGRVTMTTDTSTRTAYMELRSLRSDDTAVYYCARENYYGSGAYRGGMDVWGQGTTVTVSS
VL: EIVLTQSPATLSLSPGERATLSCRASQSVSSYLAWYQQKPGQAPRLLIYDASNRATGIPARFSGSGSGTDFTLTISSLEPEDFAVYYCQQRSNWPWTFGQGTKVEIKR
notes: Full length human IgG1 with effector function-null mutations in the Fc, produced in CHO cells; Used biotinylated for staining of monocytes
Broadly, the Kd is the equilibrium constant for the complex coming apart. The EC50 is the midpoint of the concentration-response curve. What is called koff is the rate constant with which the complex falls apart. What is called kon is the second-order rate constant of association. In general, IC50 refers to the concentration that inhibits the measured activity by half. On to B1, for which the “inhibition of NFκB activation by 150 pM TL1A in TF-1-NFκB-luciferase cells, IC50” value in assay [1] came to 95 pM. In assay [1], the “inhibition of caspase activation by 87 pM TL1A in TF-1 cells, IC50” value came out at 69 pM. Moreover, the “inhibition of IFNγ secretion in stimulated human whole blood, IC50” value in assay [2] came out at 0.277 nM. The “inhibition of IFNγ secretion in stimulated cynomolgus whole blood, IC50” value in assay [3] turned out to be 0.036 nM. Moreover, the Kd is 0.00138 nM and 0.0036 nM in assay [4]; 0.0035 nM in assay [5]; 0.0953 nM in assay [6]; 1.06 nM in assay [8]; 0.361 nM in assay [9]. Further, the EC50 was 8400 ng/mL in [7], 0.0023 ng/mL in [10], 0.0058 ng/mL in assay [11] and 0.008 ng/mL in assay [12]. Further, the koff in assay [8] was 0.00027 s⁻¹; in [9], 0.00011 s⁻¹. Also, the kon was 270000 M⁻¹ s⁻¹ in assay [8] and 320000 M⁻¹ s⁻¹ in [9]. The t1/2 in [8] came out at 0.701 h; in assay [9], 1.69 h. For the same molecule, the IC50 was found to be 0.00106 nM in [13], 0.022 nM in assay [15], 0.000114 nM in assay [16] and 0.000169 nM in [17]. For the same molecule, the binding result in assay [14] was “no binding (tested: 25 µg/ml)”.
